In paper PMC11372557:

Columns and labels:
[1] = target: RbdA-DGC-PDE (RbdA 376-797), linked cyclase-phosphodiesterase double domain of RbdA (Pseudomonas aeruginosa strain PAO1); test: SEC; apparent molecular weight on a calibrated size exclusion system; purified proteins in solution
[2] = target: RbdA-PDE (RbdA 549-797), phosphodiesterase domain of the regulator of biofilm dispersal RbdA (Pseudomonas aeruginosa strain PAO1); test: as above

| Substance | stoichiometry N [1] | stoichiometry N [2] |
| --- | --- | --- |
| RbdA-DGC-PDE (RbdA 376-797), linked cyclase-phosphodiesterase double domain of RbdA (domain or fragment) | 2 | – |
| RbdA-PDE (RbdA 549-797), phosphodiesterase domain of the regulator of biofilm dispersal RbdA (domain or fragment) | – | 2 |
